± gives the uncertainty stated by the source.
Assay: protein stability index of a GFP-peptide fusion (yeast GPS) (PSI 1-4); higher = more stable; sorted into four equal gates, so the index is relative within each strain
Method in brief: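 Tiled 17-residue peptides from yeast proteins were fused downstream of GFP on a plasmid that also expresses Cherry, and the pooled library was carried in yeast. Mid-log cultures grown in leucine-free medium were sorted into four equal gates by GFP/Cherry fluorescence ratio. Plasmids from each gate were PCR-amplified and Illumina-sequenced, and reads were assigned to strains by barcodes. Each peptide's protein stability index is the sum, over gates, of the gate's read frequency multiplied by its gate number.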

Sequence	protein stability index (doa10∆)	protein stability index (pdr5∆)	protein stability index (san1∆)	protein stability index (ubr1∆)
LEQKIHEVEEILNELQP [SMC1]	3.04 ± 0.15	2.73 ± 0.22	2.99 ± 0.17	3.14 ± 0.2
LERLTLVFCKHITSVPI [GRR1]	1.47 ± 0.057	1.42 ± 0.084	1.17 ± 0.14	1.44 ± 0.047
LERYYKEQADIYAKQQE [ARP7]	3.29 ± 0.29			3.42 ± 0.14
LESISHAGTAIGIMASD [PRE9]	1.45 ± 0.14	2.15 ± 0.1	2.06 ± 0.14	1.5 ± 0.13
LETLEHNGAPHHAIEEA [RPO21]	3.34 ± 0.12	3.01 ± 0.1	2.94 ± 0.09	2.95 ± 0.19
LEYEISKLKKETASFIP [YIL149C/MLP2]	2.66 ± 0.08	2.8 ± 0.085	2.89 ± 0.06	2.68 ± 0.059
LFGNKPTTTTGGLFGNS [YGR119C/NUP57]	2.94 ± 0.1	2.79 ± 0.13	2.85 ± 0.18	3.19 ± 0.055
LFQLLNALTVGDFDKFD [RPN9]	3.1 ± 0.29	2.36 ± 0.26		1.8 ± 0.28
LGEEHPLQVARCTKIIK [RPT1]	2.18 ± 0.082	2.78 ± 0.073	2.75 ± 0.082	2.39 ± 0.085
LGGEINDNEDDDEEYDY [BRR2]	3.5 ± 0.17	3.34 ± 0.081	3.28 ± 0.065	3.43 ± 0.1
LGICTHLGCVPIGEAGD [RIP1]	2.21 ± 0.08	2.33 ± 0.076	1.79 ± 0.1	1.9 ± 0.083
LGKCSRITDASLFQLSK [GRR1]	3.04 ± 0.11	3.14 ± 0.11	3.14 ± 0.093	2.88 ± 0.063
LGKKKATVDEFPLCVHL [RPL10]	3.1 ± 0.19	2.67 ± 0.14	3 ± 0.29	2.71 ± 0.069
LGNGVACDPSEIEPILM [RGR1]	2.06 ± 0.075	2.19 ± 0.067	3.34 ± 0.071	2.91 ± 0.063
LGNHAITIDSVVDANGC [YMR129W/POM152]	2.42 ± 0.096	1.95 ± 0.08	2.56 ± 0.07	2.79 ± 0.085
LGNTSSVANTPSEIPDA [SWI3]	2.95 ± 0.059	3.06 ± 0.062	3.03 ± 0.091	2.98 ± 0.047
LGPGIYCDPNTQEIRPV [RRP40]	2.62 ± 0.057	2.78 ± 0.051	2.53 ± 0.057	2.59 ± 0.058
LGSGSNVDVCVMEIGKD [PUP1]	3.59 ± 0.089	3.53 ± 0.087	3.4 ± 0.06	3.51 ± 0.091
LGVKNLGLCCLLDVKLA [YCG1]	1.54 ± 0.05	1.58 ± 0.045	1.82 ± 0.063	1.81 ± 0.038
LGVKSRLLEKSELPDIY [SNF2]	3.12 ± 0.13	3.42 ± 0.15	3.05 ± 0.082	3.11 ± 0.19
LGWDLDAIIPFAAIPEQ [FAS2]	2.6 ± 0.28	3.14 ± 0.15		3.15 ± 0.16
LHDEYLVSMRYPEDKKT [RPN3]	2.81 ± 0.26			
LHKEQWQSGLKMYDYEE [RPN11]	2.47 ± 0.081	2.8 ± 0.081	2.28 ± 0.096	2.39 ± 0.053
LHKFLTKWGLINYQVDS [SWI3]	2.46 ± 0.17	2.71 ± 0.12	2.03 ± 0.078	2.12 ± 0.072
LHVEQLSGGQKTVCAIA [SMC3]	1.58 ± 0.15	2.08 ± 0.24	2.09 ± 0.15	1.82 ± 0.067
LHYCVSCAIHARIVRVR [RPS26A]	1.17 ± 0.066	1.2 ± 0.083	1.15 ± 0.13	1.2 ± 0.12

Sequence	protein stability index (doa10∆)	protein stability index (pdr5∆)	protein stability index (san1∆)	protein stability index (ubr1∆)
LHYDKDYNLRIYCYFLI [SSN8]	1.28 ± 0.046	1.37 ± 0.045	1.37 ± 0.078	1.53 ± 0.046
LIAEETNNKKLLEKANN [SMC3]	2.41 ± 0.055	2.68 ± 0.075	2.38 ± 0.073	3.32 ± 0.063
LIASHYGVSFFTIQSFV [BRR2]	1.92 ± 0.043	1.89 ± 0.039	1.48 ± 0.063	1.81 ± 0.051
LIDFEYVNDVAIYNNPT [RRI2]	2.73 ± 0.062	2.92 ± 0.038	2.67 ± 0.057	2.95 ± 0.049
LIENCKQVLDVDPVYKD [FAS2]	3.14 ± 0.17	3.21 ± 0.12	3.33 ± 0.076	3.37 ± 0.068
LIENKIQNKKIQEQRVK [RPN8]	2.61 ± 0.075	2.7 ± 0.073	2.74 ± 0.068	2.83 ± 0.049
LIHPENFTCNRKILNFK [SWI1]	2.17 ± 0.069	2.49 ± 0.064	2.37 ± 0.064	2.88 ± 0.075
LIIRNDSLSGAVIAAIM [RPT3]	3.17 ± 0.11	3.09 ± 0.11	2.94 ± 0.21	3.12 ± 0.098
LIKERQEMERKLEKKRN [ESC2]			3.1 ± 0.15	
LIKKPLTVFYAIKKFKT [SSN3]	1.51 ± 0.11	1.56 ± 0.048	1.77 ± 0.091	1.42 ± 0.075
LILQRLKDLNLTVSIKI [RGR1]	1.76 ± 0.073	1.96 ± 0.071	2.65 ± 0.072	1.98 ± 0.052
LIPASDLSWSKQTDTGI [PRP8]	2.32 ± 0.089	2.68 ± 0.063	2.79 ± 0.065	2.38 ± 0.044
LIPDGRHLVNRGREEAA [PRE10]		1.41 ± 0.28		
LISGPRNQILVSITDAP [YMR129W/POM152]	1.68 ± 0.092	1.81 ± 0.084	1.46 ± 0.1	1.68 ± 0.079
LISKPAKKNNFIEDLAP [UBP6]	2.54 ± 0.084	2.73 ± 0.066	2.73 ± 0.069	2.7 ± 0.062
LITPAVRNTAPNIRELG [YCG1]	2.57 ± 0.18	2.76 ± 0.15	2.68 ± 0.28	3.09 ± 0.093
LITSEMFDAFVSFYFED [SIN4]	1.94 ± 0.1	2.59 ± 0.061	1.87 ± 0.093	2.93 ± 0.081
LKEDDSSLYEASLNALK [RPN1]	3.44 ± 0.24	3.18 ± 0.14	3.5 ± 0.12	2.95 ± 0.093
LKEERAIEPETFTQLVS [PUP3]	2.5 ± 0.057	2.85 ± 0.059	2.94 ± 0.047	2.62 ± 0.04
LKENAGSLTFLDNKGSG [YIL149C/MLP2]	3.31 ± 0.17	3.37 ± 0.1	3.55 ± 0.12	3.48 ± 0.066
LKENEENEDGNIEERKE [BRR2]		3.56 ± 0.27	3.13 ± 0.098	
LKEQELVLYDAENDVIE [BRR2]	3.24 ± 0.16	2.9 ± 0.16	2.99 ± 0.11	2.74 ± 0.11
LKEQSEQLKEQMEDMEE [SMC4]	3.21 ± 0.079	2.92 ± 0.13	3.3 ± 0.046	3.14 ± 0.1
LKERAKNISSQLDSKLM [YGR119C/NUP57]	1.2 ± 0.2	1.46 ± 0.22	1.56 ± 0.26	1.28 ± 0.13
LKIFEGIPPPYDKKKRV [RPL16B]	1.43 ± 0.15	2.51 ± 0.087	1.33 ± 0.24	1.51 ± 0.066
LKIIHDTFRWVGKKSAP [RPO31]	2.51 ± 0.15	2.43 ± 0.21	2.35 ± 0.2	3.14 ± 0.11

Sequence	protein stability index (doa10∆)	protein stability index (pdr5∆)	protein stability index (san1∆)	protein stability index (ubr1∆)
LKKLEKEYELLTLQEDY [RPT3]	2.37 ± 0.1	2.31 ± 0.13	2.6 ± 0.12	2.32 ± 0.052
LKLDKIIHVLTTMFENT [RGR1]	2.07 ± 0.049	2.43 ± 0.069	2.39 ± 0.075	2.73 ± 0.044
LKLLAKSHVLLATPVQF [BRR2]	1.89 ± 0.068	1.4 ± 0.058	1.36 ± 0.11	1.44 ± 0.07
LKLPADATTWRYSMSEQ [IRR1]	2.68 ± 0.071	2.65 ± 0.058	2.69 ± 0.065	2.5 ± 0.059
LKRISDGLSFGKGESVI [SIR3]	3.21 ± 0.28		3.33 ± 0.099	3.76 ± 0.19
LKRMEILKSPHLSKSPA [SIR4]	2.96 ± 0.06	2.93 ± 0.066	2.95 ± 0.058	2.78 ± 0.045
LKSQMDTSKALLNVSVN [SKI6]	3.22 ± 0.13	2.92 ± 0.12	3.23 ± 0.13	3.07 ± 0.053
LKTLTHKQIHTTIFVKS [POP7]	1.94 ± 0.036	2.07 ± 0.038	1.77 ± 0.063	1.82 ± 0.029
LKTRYVGRQDPKKHLSE [RPN11]	3.08 ± 0.087	3.11 ± 0.18	3.3 ± 0.078	3.26 ± 0.12
LKVYKVGDIVDIKANGS [RPL21A]	2.35 ± 0.054	2.14 ± 0.044	2.07 ± 0.052	2.11 ± 0.029
LLAKAVANQTSATFLRI [RPT2]	3 ± 0.13	2.27 ± 0.1	2.3 ± 0.14	2.21 ± 0.073
LLAREVLRLRGALVDRT [RPS0A]	2.17 ± 0.21	2.15 ± 0.094	1.78 ± 0.15	2.03 ± 0.15
LLDDKKLMDEDSVATVI [YJR042W/NUP85]	3.06 ± 0.15	2.91 ± 0.21	2.87 ± 0.14	
LLDEEAEQSFDQQSPWL [RPO21]	3.27 ± 0.073	3.25 ± 0.065	3.24 ± 0.045	3.08 ± 0.048
LLDILVKGETRIQNRVK [PRP8]	3.38 ± 0.14	2.98 ± 0.097	3.49 ± 0.096	2.94 ± 0.068
LLEKANNQQRLLLKKLD [SMC3]	2.31 ± 0.074	2.56 ± 0.074	2.28 ± 0.06	2.39 ± 0.044
LLEKYNTNELKEVSSFL [MTR3]	3.05 ± 0.054	2.76 ± 0.054	3.23 ± 0.046	3.1 ± 0.053
LLENPNCFFDVIVPQIV [DIS3]	3.23 ± 0.13	3.12 ± 0.12	2.99 ± 0.065	2.36 ± 0.095
LLEPPAKELQGIDPDET [RPO31]	3.19 ± 0.15	3.11 ± 0.14	3.31 ± 0.082	3.18 ± 0.12
LLHVAVSDSNDDVRRAA [RPN2]	3.01 ± 0.087	3.22 ± 0.076	2.69 ± 0.12	3.13 ± 0.11
LLIEFPYLPKHYLVLLV [YJR042W/NUP85]	1.98 ± 0.06	1.67 ± 0.053	2.07 ± 0.067	1.81 ± 0.047
LLIGCKLDQDDEIYIPI [CSI1]		3.12 ± 0.18	3.01 ± 0.084	3.09 ± 0.11
LLLAAQIVSYCSNNKNS [SSN2]	1.17 ± 0.045	1.42 ± 0.048	1.23 ± 0.083	1.34 ± 0.045
LLLNYLELIGVLSINPD [MED7]	1.6 ± 0.067	1.78 ± 0.063	1.31 ± 0.14	1.49 ± 0.058
